Measurements taken from doi:10.1101/774158.

Assays:
[1] = biological target: WT-ZnF-KLF1 (mouse) (UniProt P46099); test: EMSA
[2] = biological target: CDA-ZnF-KLF1 E321K (mouse) (UniProt P46099); test: EMSA
Chain of CDA-ZnF-KLF1 E321K (mouse) (P46099 275-358 E321K): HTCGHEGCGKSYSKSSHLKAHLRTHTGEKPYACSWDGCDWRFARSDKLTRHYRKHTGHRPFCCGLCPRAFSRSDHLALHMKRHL

Chain of WT-ZnF-KLF1 (mouse) (P46099 275-358): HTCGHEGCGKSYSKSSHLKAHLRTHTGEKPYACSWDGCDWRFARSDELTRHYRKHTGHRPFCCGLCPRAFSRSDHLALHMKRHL

## beta-globin site
[1]
  Kd: 548 nM
[2]
  Kd: 238 µM
